Patent publication US20060211075

Key:
[1] = system: peptide 23, Dap-substituted pyrene derivative at Y+3
[2] = system: peptide 25, Dab-modified pyrene analogue at Y-2

Chain of FynT (chain, as listed by the source): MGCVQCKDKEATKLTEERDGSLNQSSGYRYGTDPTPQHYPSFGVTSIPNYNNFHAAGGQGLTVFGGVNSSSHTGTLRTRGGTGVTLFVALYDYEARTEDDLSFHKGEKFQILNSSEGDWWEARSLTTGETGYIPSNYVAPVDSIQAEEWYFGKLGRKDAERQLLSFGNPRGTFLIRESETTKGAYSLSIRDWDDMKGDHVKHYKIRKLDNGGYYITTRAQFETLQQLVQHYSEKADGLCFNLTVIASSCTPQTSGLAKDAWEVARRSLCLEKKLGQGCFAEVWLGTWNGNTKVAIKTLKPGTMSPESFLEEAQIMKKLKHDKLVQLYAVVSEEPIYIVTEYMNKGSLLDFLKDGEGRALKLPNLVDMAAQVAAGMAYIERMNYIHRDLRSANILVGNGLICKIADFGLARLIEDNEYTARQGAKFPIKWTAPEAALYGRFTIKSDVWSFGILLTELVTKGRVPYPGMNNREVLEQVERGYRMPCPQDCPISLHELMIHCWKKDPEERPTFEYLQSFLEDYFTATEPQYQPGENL
Chain of TrkA (chain, as listed by the source): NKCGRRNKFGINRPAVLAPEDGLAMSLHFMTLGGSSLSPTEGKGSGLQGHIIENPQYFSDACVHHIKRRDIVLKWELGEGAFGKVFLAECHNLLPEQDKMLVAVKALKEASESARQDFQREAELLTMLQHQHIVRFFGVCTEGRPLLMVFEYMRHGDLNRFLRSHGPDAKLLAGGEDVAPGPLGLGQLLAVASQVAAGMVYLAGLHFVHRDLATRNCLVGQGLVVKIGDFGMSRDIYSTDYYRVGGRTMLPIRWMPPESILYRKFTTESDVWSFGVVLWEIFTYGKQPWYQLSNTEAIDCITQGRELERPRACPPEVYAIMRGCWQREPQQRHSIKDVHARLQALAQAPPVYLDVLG
Chain of Yes (chain, as listed by the source): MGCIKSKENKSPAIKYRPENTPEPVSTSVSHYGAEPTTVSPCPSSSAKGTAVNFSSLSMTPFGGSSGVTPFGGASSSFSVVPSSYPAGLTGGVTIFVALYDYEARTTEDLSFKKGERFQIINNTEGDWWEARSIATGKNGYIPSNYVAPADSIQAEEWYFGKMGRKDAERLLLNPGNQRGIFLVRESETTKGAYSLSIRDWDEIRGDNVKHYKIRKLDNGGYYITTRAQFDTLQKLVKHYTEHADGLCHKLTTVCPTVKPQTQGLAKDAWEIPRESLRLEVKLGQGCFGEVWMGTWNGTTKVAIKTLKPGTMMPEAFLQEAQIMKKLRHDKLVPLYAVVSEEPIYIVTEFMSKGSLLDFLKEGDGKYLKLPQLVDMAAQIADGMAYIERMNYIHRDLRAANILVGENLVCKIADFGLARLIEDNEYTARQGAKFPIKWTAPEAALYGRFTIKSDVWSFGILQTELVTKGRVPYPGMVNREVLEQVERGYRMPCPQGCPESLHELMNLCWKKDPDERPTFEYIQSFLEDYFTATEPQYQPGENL

Substance	Km [1] [µM]	Vmax [1] [µmol/min/mg]	Km [2] [µM]	Vmax [2] [µmol/min/mg]	phosphorylation of the peptide (fluorescence) [1]	phosphorylation of the peptide (fluorescence) [2]
Fgr	54	2.3				
TrkA	350	1.1				
LynA	140	2.6	43	2.6		
EGF					unable to effectively catalyze the phosphorylation of either 23 or 25	unable to effectively catalyze the phosphorylation of either 23 or 25
Yes	37	3.3				
FynT	69	0.24				
